From publication PMC11996608 (Nature structural & molecular biology, 2025)

Tests used:
[1] = molecular target: Eco RNAP β' subunit (β'-PPX-His10) (Escherichia coli, UniProt P0A8T7 1-1407); assay: cryo-EM structure
Eco RNAP β subunit = Eco RNAP β subunit (Escherichia coli, UniProt P0A8V2 1-1342); assay: cryo-EM structure
Sequence of Eco RNAP β subunit (P0A8V2 whole entry): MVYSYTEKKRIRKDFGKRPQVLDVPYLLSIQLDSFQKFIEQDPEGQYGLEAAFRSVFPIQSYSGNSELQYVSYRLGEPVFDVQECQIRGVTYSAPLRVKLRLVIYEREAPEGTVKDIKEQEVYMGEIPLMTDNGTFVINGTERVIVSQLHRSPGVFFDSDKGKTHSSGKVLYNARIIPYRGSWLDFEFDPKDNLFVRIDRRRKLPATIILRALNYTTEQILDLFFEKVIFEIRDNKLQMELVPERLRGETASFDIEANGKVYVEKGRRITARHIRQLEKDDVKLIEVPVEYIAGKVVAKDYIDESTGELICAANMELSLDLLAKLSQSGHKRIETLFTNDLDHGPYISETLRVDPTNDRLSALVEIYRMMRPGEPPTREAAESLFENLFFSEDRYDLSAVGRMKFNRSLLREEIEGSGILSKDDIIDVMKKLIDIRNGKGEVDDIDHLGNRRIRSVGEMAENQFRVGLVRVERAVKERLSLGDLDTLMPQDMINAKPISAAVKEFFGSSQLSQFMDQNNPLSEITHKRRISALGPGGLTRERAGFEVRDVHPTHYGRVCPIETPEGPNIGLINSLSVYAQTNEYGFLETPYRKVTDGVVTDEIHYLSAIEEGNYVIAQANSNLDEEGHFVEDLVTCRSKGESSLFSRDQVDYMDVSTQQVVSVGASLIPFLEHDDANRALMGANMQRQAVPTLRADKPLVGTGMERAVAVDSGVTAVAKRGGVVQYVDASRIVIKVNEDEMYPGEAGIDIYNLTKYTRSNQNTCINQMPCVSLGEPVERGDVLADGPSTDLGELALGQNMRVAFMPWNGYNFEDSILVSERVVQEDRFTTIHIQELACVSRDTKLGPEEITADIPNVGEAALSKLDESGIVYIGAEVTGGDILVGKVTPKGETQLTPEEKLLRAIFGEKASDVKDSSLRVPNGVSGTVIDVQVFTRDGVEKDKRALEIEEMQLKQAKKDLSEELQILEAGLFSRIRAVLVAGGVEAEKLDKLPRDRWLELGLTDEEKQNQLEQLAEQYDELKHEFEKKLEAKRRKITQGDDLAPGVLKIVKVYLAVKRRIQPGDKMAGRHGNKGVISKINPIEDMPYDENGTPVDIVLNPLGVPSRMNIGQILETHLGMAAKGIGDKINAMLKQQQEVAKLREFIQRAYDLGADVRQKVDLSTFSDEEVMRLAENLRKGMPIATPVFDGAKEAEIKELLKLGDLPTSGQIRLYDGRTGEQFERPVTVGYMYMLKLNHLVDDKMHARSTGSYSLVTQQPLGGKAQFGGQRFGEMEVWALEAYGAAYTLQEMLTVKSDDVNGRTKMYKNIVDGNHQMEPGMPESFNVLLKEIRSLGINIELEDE

Sequence of Eco RNAP β' subunit (β'-PPX-His10) (P0A8T7 whole entry): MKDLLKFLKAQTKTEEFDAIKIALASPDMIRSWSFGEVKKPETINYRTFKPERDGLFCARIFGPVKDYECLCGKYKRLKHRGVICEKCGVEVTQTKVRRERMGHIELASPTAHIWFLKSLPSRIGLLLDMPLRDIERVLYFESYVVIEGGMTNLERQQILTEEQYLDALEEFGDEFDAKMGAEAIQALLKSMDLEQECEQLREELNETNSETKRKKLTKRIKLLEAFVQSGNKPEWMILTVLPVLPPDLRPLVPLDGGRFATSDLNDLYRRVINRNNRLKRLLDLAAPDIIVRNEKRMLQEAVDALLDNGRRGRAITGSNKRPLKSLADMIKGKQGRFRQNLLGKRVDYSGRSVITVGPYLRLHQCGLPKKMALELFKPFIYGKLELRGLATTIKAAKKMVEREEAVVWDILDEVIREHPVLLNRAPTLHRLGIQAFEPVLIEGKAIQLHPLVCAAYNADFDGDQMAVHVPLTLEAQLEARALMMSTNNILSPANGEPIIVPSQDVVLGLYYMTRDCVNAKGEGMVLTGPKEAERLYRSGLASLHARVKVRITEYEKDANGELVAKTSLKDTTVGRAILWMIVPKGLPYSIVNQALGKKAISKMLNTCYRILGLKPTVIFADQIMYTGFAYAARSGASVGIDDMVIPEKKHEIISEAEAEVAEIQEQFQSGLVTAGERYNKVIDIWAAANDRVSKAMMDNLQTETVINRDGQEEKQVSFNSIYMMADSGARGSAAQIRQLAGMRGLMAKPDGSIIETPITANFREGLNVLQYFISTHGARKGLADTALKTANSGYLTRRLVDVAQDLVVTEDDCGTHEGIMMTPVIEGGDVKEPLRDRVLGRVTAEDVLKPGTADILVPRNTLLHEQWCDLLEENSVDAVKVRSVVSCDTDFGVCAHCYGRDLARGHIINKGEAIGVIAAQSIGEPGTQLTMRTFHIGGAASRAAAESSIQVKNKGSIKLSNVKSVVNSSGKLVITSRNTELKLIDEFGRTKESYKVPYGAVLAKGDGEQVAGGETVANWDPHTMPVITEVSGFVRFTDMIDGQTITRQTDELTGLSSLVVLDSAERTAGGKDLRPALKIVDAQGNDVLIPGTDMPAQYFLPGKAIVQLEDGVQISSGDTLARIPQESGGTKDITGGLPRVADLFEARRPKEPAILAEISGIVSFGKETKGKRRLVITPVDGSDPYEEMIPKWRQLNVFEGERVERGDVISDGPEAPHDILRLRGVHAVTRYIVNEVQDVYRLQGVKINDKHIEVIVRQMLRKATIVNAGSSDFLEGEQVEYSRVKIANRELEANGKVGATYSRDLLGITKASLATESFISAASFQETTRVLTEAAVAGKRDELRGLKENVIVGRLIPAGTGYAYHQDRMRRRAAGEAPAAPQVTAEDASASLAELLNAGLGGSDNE

B1: Eco RapA (N-terminally His6-tagged full-length RapA) (enzyme, Escherichia coli, UniProt P60240 1-968, looked up)
chain: MPFTLGQRWISDTESELGLGTVVAVDARTVTLLFPSTGENRLYARSDSPVTRVMFNPGDTITSHDGWQMQVEEVKEENGLLTYIGTRLDTEESGVALREVFLDSKLVFSKPQDRLFAGQIDRMDRFALRYRARKYSSEQFRMPYSGLRGQRTSLIPHQLNIAHDVGRRHAPRVLLADEVGLGKTIEAGMILHQQLLSGAAERVLIIVPETLQHQWLVEMLRRFNLRFALFDDERYAEAQHDAYNPFDTEQLVICSLDFARRSKQRLEHLCEAEWDLLVVDEAHHLVWSEDAPSREYQAIEQLAEHVPGVLLLTATPEQLGMESHFARLRLLDPNRFHDFAQFVEEQKNYRPVADAVAMLLAGNKLSNDELNMLGEMIGEQDIEPLLQAANSDSEDAQSARQELVSMLMDRHGTSRVLFRNTRNGVKGFPKRELHTIKLPLPTQYQTAIKVSGIMGARKSAEDRARDMLYPERIYQEFEGDNATWWNFDPRVEWLMGYLTSHRSQKVLVICAKAATALQLEQVLREREGIRAAVFHEGMSIIERDRAAAWFAEEDTGAQVLLCSEIGSEGRNFQFASHMVMFDLPFNPDLLEQRIGRLDRIGQAHDIQIHVPYLEKTAQSVLVRWYHEGLDAFEHTCPTGRTIYDSVYNDLINYLASPDQTEGFDDLIKNCREQHEALKAQLEQGRDRLLEIHSNGGEKAQALAESIEEQDDDTNLIAFAMNLFDIIGINQDDRGDNMIVLTPSDHMLVPDFPGLSEDGITITFDREVALAREDAQFITWEHPLIRNGLDLILSGDTGSSTISLLKNKALPVGTLLVELIYVVEAQAPKQLQLNRFLPPTPVRMLLDKNGNNLAAQVEFETFNRQLNAVNRHTGSKLVNAVQQDVHAILQLGEAQIEKSARALIDAARNEADEKLSAELSRLEALRAVNPNIRDDELTAIESNRQQVMESLDQAGWRLDALRLIVVTHQ
B1: binds [1]; binds (Eco RNAP β subunit).
